Test results reported in publication PMC9963953, “Structures of MPND Reveal the Molecular Recognition of Nucleosomes”.

Target: T1, MPND 54-163 (RAMA domain, crystal) (Mus musculus, UniProt Q3TV65 54-163)
T1 sequence: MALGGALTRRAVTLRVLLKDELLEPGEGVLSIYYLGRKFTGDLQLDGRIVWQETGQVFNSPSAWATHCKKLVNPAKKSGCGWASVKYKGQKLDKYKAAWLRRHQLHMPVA
Assay: X-ray crystallography (2.47 A); EMSA: 20 mM HEPES pH 7.2, 100 mM NaCl, 2 mM DTT, 0.1% NP-40, 20 uM protein, 5 uM DNA, on ice; MST: 20 mM HEPES pH 7.2, 100 mM NaCl, 0.1% NP-40, 22 C; pull-down: 20 mM HEPES pH 7.2, 0.15 M NaCl, 1 mM DTT, 4 C
Settings: protein: recombinant; tags: tag removed with TEV; 18 bp, 5' overhangs 1 nt

B1: crystallization dsDNA (dsDNA)
DNA 1: CAGCAACAGAAGAGGATCT
DNA 2: GAGATCCTCTTCTGTTGCT
B1: binds.
